Test results: the supplement of paper PMC12042874
± gives the uncertainty stated by the source.

Test: amyloid nucleation score (Sup35N fusion, yeast selection) (log enrichment); library NNK1; higher = more nucleation; inactive = no reads after selection
Outline: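 Libraries of peptides of 20 random codons fused to Sup35N were expressed in psi-negative yeast and induced 24 hours with 100 μM copper sulfate. Selection was 7 days at 30°C on medium lacking adenine and uracil, and plasmid inserts were Illumina-sequenced before and after selection. Nucleation score is the DiMSum log enrichment of output over input reads, centred on the mode score of non-aggregating sequences, and sequences with under 100 input reads were left out.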

Row | Substance | amyloid nucleation score
1 | ICMILVPFMPT | 0.976 ± 1.1
2 | ICVNESKKVFQVFIANIGRG | 4.86 ± 0.07
3 | IDEYTDMN | 0.146 ± 0.42
4 | IDHNLSGLVC | 0.544 ± 0.97
5 | IDKGLHALLSTLLSINVSFC | 2.95 ± 0.094
6 | IDVGSHFCSFQEHKACGTSL | 0.31 ± 0.47
7 | IDYRIDCVCFLCSVREEAYR | 7.278 ± 0.047
8 | IEAYYGIPDVKHMLVYLRQD | -0.284 ± 0.7
9 | IENRFLGVKLIAGCSHGLWS | -0.241 ± 0.57
10 | IEQSNMVTARRLELLRSAVS | 0.339 ± 0.54
11 | IEVDPTNSKKSAPDTHLGSL | -0.001 ± 0.95
12 | IEVKSWYATPNFGSQLSKRD | 0.274 ± 0.45
13 | IEYCIVSFQSMGE | 0.326 ± 0.46
14 | IFDYSTLECESDEGEAEGMS | 0.572 ± 0.81
15 | IFHLCFLKGNGSFMLYKRHT | -0.462 ± 0.51
16 | IFILD | inactive
17 | IFRFSNFR | 5.822 ± 0.054
18 | IFSIRFTLCGWPLLCHIMLL | -0.302 ± 0.31
19 | IFTFSIVTSNATGYLW | 2.29 ± 0.12
20 | IFTRW | -0.741 ± 0.49
21 | IGACFWRFIFVKLSTNL | -0.406 ± 0.36
22 | IGATLAPLTMSLNRSSDESS | 0.655 ± 0.64
23 | IGCGGVPKNQCWGPERFLEW | -0.132 ± 0.57
24 | IGDTI | 0.302 ± 0.33
25 | IGFEIHFMYALE | 0.355 ± 1
26 | IGGCWLLQMN | 0.369 ± 0.44

Row | Substance | amyloid nucleation score
27 | IGGVFALHCRMNIAPGSHTL | 2.38 ± 0.14
28 | IGLMRLC | -0.608 ± 1.2
29 | IGRMSYWGCRTLNNSPCGKF | -1.22 ± 1.7
30 | IHGTMRGYWHMLFQELNIGV | -0.152 ± 0.54
31 | IHQEIVNVNTIVCN | -0.147 ± 0.25
32 | IHSAYLNAQRKVWATAKFKW | -0.639 ± 0.35
33 | IHVAFHSLSQCGRCVYCSVL | 3.25 ± 0.16
34 | IHVTGCYLEPSAHF | inactive
35 | IICISFWSVKLVDHPMVSNG | 0.726 ± 0.75
36 | IICSLW | 0.614 ± 0.34
37 | IIEFML | inactive
38 | IIFWGLCICHPVLPTRGGWE | 7.26 ± 0.084
39 | IIGSEARLD | inactive
40 | IIIRRISGGFAVPSYAHLHS | 0.53 ± 0.32
41 | IIKDDLRMCWDGKRYWNSLI | 0.713 ± 0.32
42 | IILRFVCDI | inactive
43 | IIQRAM | 0.09 ± 0.7
44 | IIREFSEGWVISKLDQD | -0.446 ± 0.3
45 | IITMIP | -0.514 ± 0.65
46 | IIVIIVLLDLDVSWVDYEVM | -0.157 ± 0.78
47 | IIVTSKQSTTYTHLVWERSG | -0.629 ± 0.69
48 | IIWIRAVPLMTRNEGVCECG | -0.982 ± 1.8
49 | IIWMSRRSSSLNEKGLKFNY | -0.548 ± 0.29
50 | IIYDLLCYSWRMFWL | 2.27 ± 0.1
51 | IIYNAKE | 0.367 ± 0.36
52 | IKEFRYMLKRYLLWFVDLLL | 0.762 ± 0.59

Row | Substance | amyloid nucleation score
53 | IKFERAIRSSVGKQRC | 0.784 ± 0.71
54 | IKMRWISFKCLPYCMFKNRI | -0.355 ± 0.35
55 | IKSVVLS | 0.043 ± 0.63
56 | ILEEYYLCIWLEVAWHICHA | -0.571 ± 0.8
57 | ILENTVCSIFVSVVIANVGL | 1.94 ± 0.53
58 | ILESCIWDITRLRWPYGSSW | 0.741 ± 0.21
59 | ILEYWSISKKPYMIVMGGRV | 0.15 ± 0.34
60 | ILFSNCSFLKSCYWFK | 7.25 ± 0.085
61 | ILFVG | -0.462 ± 0.42
62 | ILGRYNNAVLGVGSEQWSVG | 0.287 ± 0.46
63 | ILIRNIMCSGSVSLSNLGSG | -0.134 ± 1
64 | ILKELSKPGVQPVVS | 0.575 ± 0.8
65 | ILLELVASTVVLPLIT | 0.165 ± 0.43
66 | ILLMSNYYAVRQEEFDQLPV | inactive
67 | ILNFRERL | -1.06 ± 0.43
68 | ILRNDMSATVNM | 0.97 ± 0.17
69 | ILRPSSFNMVALDLNISLPK | 4.82 ± 0.087
70 | ILRTFVSSCVDVGTYSTTKC | -1.52 ± 2.4
71 | ILSERHWVFELYGLCGWRRE | 0.493 ± 0.52
72 | ILTVLLISMWVMNHLIFLGL | -0.563 ± 1.4
73 | ILVSYLSLPT | 0.802 ± 0.42
74 | ILYMWWVRPLVQAQENRRRY | -0.089 ± 0.39
75 | ILYTNRMCLWSKTSNFLPLR | -0.318 ± 0.29
76 | IMAGHFRL | 3.69 ± 0.082
77 | IMETHLFLTETGNLLSKMGD | inactive
78 | IMLLAWQLSKMSSFVCKSTR | 0.16 ± 0.74

Row | Substance | amyloid nucleation score
79 | INFARPVTILTYATFSVFGN | 4.9 ± 0.082
80 | ININGNVY | 0.849 ± 1.1
81 | INNGIQ | -0.047 ± 0.96
82 | INNHKIDQTML | -0.541 ± 0.84
83 | INRFTICTFHWTGFALNALS | 2.26 ± 0.17
84 | INSTEIPFDPAVKL | -0.908 ± 0.79
85 | INTCCIRCFRQYGNFNKIKT | 0.662 ± 1.1
86 | INVMWRYSFWLEFQT | -0.442 ± 0.4
87 | INYFQDD | -0.727 ± 1.4
88 | INYGMRCYEE | -0.427 ± 1.2
89 | INYHMVNLNVLAMC | 2.17 ± 0.46
90 | IPRGCRFKSRVTVKINSGAG | 1.37 ± 0.9
91 | IPYLN | 1.15 ± 0.54
92 | IQAMGGRMSRAV | -0.073 ± 0.77
93 | IQWGEKNGCGHLGQFMWYDG | 0.193 ± 0.58
94 | IRCLGISRIFLVYRSVPFWI | 0.413 ± 0.57
95 | IRCRQQARTMYNKMEKMGRG | -0.433 ± 0.3
96 | IRDDCTYYVSAE | 0.634 ± 0.23
97 | IRDRMLMCDGKRLNTLLEHI | 0.145 ± 0.49
98 | IRGTTRAFLANQGCDVLYTG | -0.865 ± 0.86
99 | IRIKDTFESWYSLINEDLGH | inactive
100 | IRKIS | -1.13 ± 1.7
101 | IRLIKIPVKFKFVSTMCSGC | -0.1 ± 0.93
102 | IRLKYSGHAILFHETKNKHA | 0.511 ± 0.42
103 | IRPINKYRIVLIWVSFVRGE | 0.718 ± 0.73
104 | IRSFPTV | 0.075 ± 0.47

Row | Substance | amyloid nucleation score
105 | IRVGGIWRGCCGVDLCYLTI | -0.627 ± 0.61
106 | ISAVGKYESDTVGPSKND | 0.507 ± 1
107 | ISDEIGIAIENKDSLRKGFR | 0.002 ± 0.84
108 | ISEVFD | -0.237 ± 0.24
109 | ISGAN | -0.06 ± 0.44
110 | ISGFRKLVMVREVP | -0.606 ± 1.4
111 | ISGGLTGKWVFVLGDWWVMF | -0.206 ± 0.74
112 | ISGTRLVLGLDDSR | 0.069 ± 0.37
113 | ISIQSLRLSSSSWNLTLHCG | 3.25 ± 0.097
114 | ISISLRHECRYKMFEQ | 2.22 ± 0.19
115 | ISKFFYLVW | 0.097 ± 0.52
116 | ISKISPFECGPVVAQ | 1.12 ± 0.73
117 | ISLVLDFGDVYIVS | 6.203 ± 0.048
118 | ISMNF | 0.67 ± 1.1
119 | ISQVIGSRILPRPTEQVA | -1.96 ± 1.3
120 | ISRSASVGRGLGKYESRAVR | 0.353 ± 1.2
121 | ISRSICKREVLQVDR | 0.378 ± 0.51
122 | ISSKLLFSESSPSMSIQTHW | 0.765 ± 0.64
123 | ISSLYLMSFCILFPPRKFVY | -1.09 ± 0.51
124 | ISSRRCVRED | inactive
125 | ISTPKDISSPKSFWNIFFGT | 4.65 ± 0.069
126 | ISVKSW | -0.325 ± 0.98
127 | ITLCVNRLRFRVKLNHQSSF | inactive
128 | ITLKCCMSTRNHMCHR | 3.75 ± 0.066
129 | ITLKF | -0.381 ± 0.43
130 | ITPTYGT | -0.023 ± 0.39

Row | Substance | amyloid nucleation score
131 | ITRPGKWGRGD | 0.782 ± 0.35
132 | ITSNHSVWGIMLLKLVTGSI | 0.496 ± 0.48
133 | IVEDSLRFIANPYTILNR | 0.723 ± 0.55
134 | IVEFASFSVQVNARNDLHLV | 1.73 ± 0.28
135 | IVFRLS | 0.185 ± 0.38
136 | IVGFHGSNFYSDVSVIGQML | inactive
137 | IVIAVMSGSYVSLKSWFLRH | -1.5 ± 1.3
138 | IVLPVCDIITEAVLSCNSPG | 0.318 ± 0.33
139 | IVLWCTWYYNWNWPSALFRM | -0.192 ± 0.78
140 | IVNAKLSWSYPGIIRLCHCE | 0.43 ± 0.28
141 | IVSKFSYQFKSIGINFYFFR | 4.18 ± 0.12
142 | IVSLNGPAKSSAFGKFSGPL | -0.602 ± 0.72
143 | IVSMRL | 0.216 ± 1.4
144 | IVVGRC | 0.144 ± 0.39
145 | IVVLLKNRS | 0.488 ± 0.47
146 | IVVVGD | -1.63 ± 1.3
147 | IWHFASCAYGGVGSKGDPSD | 0.67 ± 0.69
148 | IWLFFFPMSLRFASYWTGLL | -1.1 ± 0.81
149 | IWLKWCNSPLVRLSMGNSSF | 0.206 ± 0.27
150 | IWMLELSGFMKMVQGGHQVG | 3.06 ± 0.14
151 | IWNSVARFRYSSMGFVVSAG | 0.898 ± 0.93
152 | IWPLGNAIK | 1.93 ± 0.51
153 | IWRTLWMWSVGTSTNPVHSL | -0.088 ± 0.49
154 | IWRWPRMESKSGYHSDFNST | -1.32 ± 2.4
155 | IWSGATV | 0.445 ± 0.41
156 | IWVSGWNYVGRVVVEYQRLS | 0.444 ± 1.4

Row | Substance | amyloid nucleation score
157 | IWVSLDYMKSGNGNFTDSFC | 2.82 ± 0.12
158 | IWWFGSILFLRQSWYKIWSC | -0.877 ± 0.39
159 | IWYSDVGPTTN | -1.14 ± 0.56
160 | IYACTYY | 0.184 ± 0.45
161 | IYISYIRRRFVGLFST | -0.938 ± 0.47
162 | IYLNFLPVVPCRFFCIRTWG | inactive
163 | IYLPRNVFRLTWFYLSQSLA | 0.639 ± 1.1
164 | IYNFSKYPVFGKTRALGFNF | -0.395 ± 0.67
165 | IYNLNVISSVCESTRCRQTA | 7.08 ± 0.078
166 | IYNRKTYFMTTSATVVFAVP | 0.696 ± 0.4
167 | IYQKGMVLGATRNGFSRCKG | -0.173 ± 0.3
168 | IYRGSNRLRRIGWEFNVALD | -0.819 ± 0.33
169 | IYTRFFNTV | -0.222 ± 0.36
170 | IYVYQLSFCCKAY | 0.235 ± 0.66
171 | IYYSFVGLVMCYAFPAEVWS | 1.4 ± 0.51
172 | KAIRMLFSVMIVKR | inactive
173 | KCDARVVIFYLVRAGGVNGI | 1.41 ± 0.35
174 | KCHLFKHLL | 1.66 ± 0.6
175 | KCIYTEKEMGLSAFTLRLYI | 6.286 ± 0.058
176 | KCIYVFSYIYTFLNMCWRGH | 3.5 ± 0.1
